Test [1] deals with T1, ADDL fibril preparation (Aβ1-42 fibrils).
T1 construct: Fibrillar assembly; number of copies not fixed
The test can be described thus: solution equilibrium titration, free IgG by ELISA, GraFit; SE 0.47.

In test [2] the target is T2, Biotinylated ADDL preparations (bADDLs) (N-terminal biotin).
T2 construct: Oligomer, number of copies not fixed; also called biotinylated ADDL antigen; high molecular weight 10% bADDL
Put plainly: BIACORE, bADDL as antigen; column IgG1#1 (row shifted one column to the left).

Test [3] deals with T3, biotin-Aβ1-20 (biotin (position not given)).
T3 peptide: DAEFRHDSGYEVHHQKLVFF
The test can be described thus: BIACORE, biotin-Aβ1-20 as antigen; column IgG1#1.

Test [4] addresses T4, Aβ-derived diffusible ligands (synthetic ADDLs), soluble oligomers of amyloid β1-42.
T4 construct: Oligomeric preparation of synthetic Aβ1-42 in DMSO/F12 (monomer, trimer, tetramer, 12-24mer on SDS-PAGE); number of copies not fixed; also called soluble Aβ oligomers
The test can be described thus: solution equilibrium titration, free IgG by ELISA, GraFit; SE 0.09.

The target in test [5] is T5, Aβ1-20 peptide.
T5 peptide: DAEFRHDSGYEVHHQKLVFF
Put plainly: solution equilibrium titration, free IgG by ELISA, GraFit; SE 24.41.

The target of test [6] is T6, amyloid beta (1-40) peptide.
T6 construct: Used as monomer-like control; also called Aβ1-40; monomer preparation
The test can be described thus: solution equilibrium titration, free IgG by ELISA, GraFit; SE 5.05.

Test [7] addresses T7, Aβ1-12 peptide.
T7 peptide: DAEFRHDSGYEV
Put plainly: competition dot blot with peptides.

The target of test [8] is T8, Aβ12-28 peptide.
T8 peptide: VHHQKLVFFAEDVGSNK
The test can be described thus: competition dot blot with peptides.

For test [9], the target named is T6, amyloid beta (1-40) peptide. The test can be described thus: solution equilibrium titration, free IgG by ELISA, GraFit; SE 6.21.
Test [10] concerns the target T4, Aβ-derived diffusible ligands …. Put plainly: solution equilibrium titration, free IgG by ELISA, GraFit; SE 1.63.
Test [11] concerns the target T1, ADDL fibril preparation (Aβ1-42 fibrils). The test can be described thus: solution equilibrium titration, free IgG by ELISA, GraFit; SE 5.78.
The target of test [12] is T5, Aβ1-20 peptide. The test can be described thus: solution equilibrium titration, free IgG by ELISA, GraFit; SE 4.39.
Test [13] has as its target T1, ADDL fibril preparation (Aβ1-42 fibrils). The test can be described thus: solution equilibrium titration, free IgG by ELISA, GraFit; SE 2.40.
The target in test [14] is T6, amyloid beta (1-40) peptide. Put plainly: solution equilibrium titration, free IgG by ELISA, GraFit; SE 5.84.
For test [15], the target named is T5, Aβ1-20 peptide. The test can be described thus: solution equilibrium titration, free IgG by ELISA, GraFit; SE 7.07.
For test [16], the target named is T4, Aβ-derived diffusible ligands …. Put plainly: solution equilibrium titration, free IgG by ELISA, GraFit; SE 0.52.

B1: murine anti-ADDL monoclonal antibody 20C2 (antibody, mouse IgG1, V domains shown)
VH: QVTLKESGPGILKPSQTLSLTCSLSGFSLSTSGMGVGWFRQPSGKGLEWLAHIWWDDDKSYNPSLKSRLTISKYTSRNQVFLTITSVDTADTATYYCARRQLGLRSIDAMDYWGQGTSVTVSS
VL: DVLMTQTPLSLPVSLGDQASISCRSSQSILHSNGNTYLEWYLQKPGQSPKLLIYKVSNRFSGVPDRFSGSGSGTDFTLKISRVEAEDLGVYYCFQGSLVPLTFGAGTKLELK
notes: also called Mouse-20C2
Take B1: the Kd was found to be 3.62 nM in test [1]; 4.1 nM in [2]; 3.4 nM in test [3]; 0.92 nM in test [4]; 71.3 nM in test [5]; 30.5 nM in test [6]. Also, the binding result in [7] and in [8] was “no binding (tested: 200 pmol peptide in 200 µL)” in each case.

B2: murine anti-ADDL monoclonal antibody 5F10 (antibody, V domains shown)
VH: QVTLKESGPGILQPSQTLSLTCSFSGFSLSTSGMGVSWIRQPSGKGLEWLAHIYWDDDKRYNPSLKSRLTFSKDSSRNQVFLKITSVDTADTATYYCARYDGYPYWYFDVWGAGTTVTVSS
VL: VVLMTQTPLSLPVSLGDQASISCRSSQSLVHSNGNTYLHWYLQKPGQSPKLLIYKVSNRFSGVPDRFSGSGSGTDFTLKISRVEAEDLGVYFCFQSTHVPLTFGAGTKLELK
notes: also called SF10
As to B2, the dissociation constant (Kd) in [9] stood at 23.5 nM; in test [10], 11.9 nM; in [11], 28.9 nM; in test [12] it was 6.1 nM.

B3: murine anti-ADDL monoclonal antibody 2D6 (antibody, mouse IgG1, V domains shown)
VH: QVTLKESGPGILKPSQTLSLTCSFSGFSLSTSGMGVGWIRQPSGKGLEWLAHIWWDDDKYYNPSLKSQLTISKDTSRNQVFLKITSVDTADTATYYCARRSISTVIPEDYFDYWGQGTILTVSS
VL: DVLMTQTPLSLTVSLGDQASISCRSSQSIVHSNGNTYLEWYLQKPGQSPKLLIYKVSNRFSGVPDRFSGSGSGTDFTLKISRVEAEDLGVYYCFQGSHVPLTFGAGTKLELK
Consider B3, for which the equilibrium dissociation constant (Kd) in test [13] is 14.4 nM; in test [14], 25.7 nM; in test [15] it was 30.2 nM; in [16], 5.05 nM.

Source of the values: US20060228349A1 (published 2006).
